Measurements taken from a protein production outcome set (Wang et al. 2014).

Test: label from the status in PepcDB records
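Further: failed if final PepcDB status was selected cloned or expressed and not failed if soluble or beyond.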

Row | Sequence | protein production
1 | MAKLHITTWGCQMNEYDSSKMADLLNSTHGLELTDKPEEADILLLNTCSIREKAQEKVFSQLGRWKNWKKDKPDLIIGVGGCVASQEGEHIRERAPFVDIVFGPQTLHRLPEMINQIRSGDRAVVDISFPEIEKFDRLPEPKAEGPTAFVSIMEGCNKYCSFCVVPYTRGEEVSRPVDDVLFEIAQLAEQGVREVNLLGQNVNAYRGETFDGGICTFAELLRLVAAIDGIDRLRYTTSHPIEFTDDIIEVYRDTPELVSFLHLPIQSGADRVLTMMKRNHTALEYKAIIRKLRAVRPNIQISSDFIVGFPGETAEDFEQTMKIIEQVNFDMSFSFIYSARPGTPASDLPDDVSENEKKDRLAHLQQRINHQAMQFSRLMLGTEQRILVEGPSKKDIMELTGRTETNRVVNFIGTPNMIGKFVDIKITDVYSNSLRGEVIRTEDQMGLRIVESASSVIARTRKEDDLGVGKYAVNLLEHHHHHH | failed
2 | MTSSEQPRTYWLEHAWLGTHVEPGVALDVRDGRITAVNQGVATPPPGAGILRGLTLPGLANAHSHAFHRALRGTVQVGSGTFWTWREVMYSVADRLTPDTYHALARAVYAEMALAGITAVGEFHYVHHAPGGTPYADPNAMGEALIEAAAEAGVRITLLDTCYLSSGFGEPPNTHQRRFSDGTADAWAERCSVLKERDHARIGAAIHSVRAVPADQLATVAQWAEERRAPLHVHLSEQTAENDACRQAHGRTPTRLLADHGVLGARTTGVHNTHLTDEDIALLGGSRTGTCMCLTTERDLADGIGPAAALQRAGSPLSLGSDSHAVVDLLEEARAMELNERLRTRARGHWTAAALLRAATADGHAALGWDDTGRIEAGARADLATIALDSVRTAGPLPRLGAETAVFAATAADVRHTVVGGRHVVRDGAHTLVPDVPQALARAVEALRA | failed
3 | AHKLFIGGLPNYLNDDQVKELLTSFGPLKAFNLVKDSATGLSKGYAFCEYVDINVTDQAIAGLNGMQLGDKKLLVQRASVGAKNA | not failed
4 | MAASQTPARILVTGVAGNLGRKVVEALASTPWCTSIIGVDWVEQSMQFSPQAAQRLRWVVADLTQADGAWTALLDEVDAVIHLAAIHSTPDATWEQALASYGMTLNVLQAAATRGVRRFVFASSNHAMGAYKDQPLAGTIGPGRLIAELAPAPGTRWHNGIEEVYSLAYGTSKAMGERLCKAVAAVSGGRLSVVALRIGWALPDDNDPNDINHSGTADTPVPGSVPDEASRIALRWFRNMWLSNDDLRQLFIAAVTADPARWPAPAIVVNGVSNNTGMDWGLETGRALIGYEPQDDLYARLTQPA | failed
5 | MEPCLHPTLVDETSLVLYLDLARETGYRYVDVPFHWLEAEAERHGDAAVEAMFQRRGLVLANLGLPLNLYDSEPVFLRELSLLPDRARLCARLGARSVTAFLWPSMDEEPVRYISQLARRIRQVAVELLPLGMRVGLEYVGPHHLRHRRYPFVQSLADLKTFWEAIGAPNVGALVDSYHWYTAGEHEDDLAQLPPEKVVYVHINDTRDAPEDAHDGKRLLPGDGRIPLVPFLRGLYLAGYRGPVAAEVLHETPLDGTGESRARLVRERLEKLIALAKGEN | not failed
6 | MKPRNIAIACGVAGVAVSLAAATGIVYHKQIKSAASLKRLTGYADGYDLYAIDIAYDYDLNRIIAAGVRDDQAYIDAVVAQVLPGVPVHVQAPQFACSAFVAVDAEGRVRTGRNYDFKDDTSALLVRNHPRGGYASIGFAALNNLGDNTPLDSVAGRAAALMGPFGQLDGVNECGVSIAVLTLDSKPCDQDAQRPVINTSLAIRLVLDRAATTQEAVDLLSAYDMHAMAGRDYHFFINDAAGDARVVEWDPRDPDRAFKATPVRQVTNFYACYGDEVLPNQKNGELGHGKERAIAIADVLDAHVGAQDEAVAWKALRAAAQEPNPKDITSNTQWSVVFDNTEPAAAITLRRHWGDVDAFAL | failed
7 | MKTFKGKVTTTLAVLSAMSLFAFSASLLAGSLDLSGRSDDDTQQDTGRKPAQIIDFVGVEKGDKVLDLLAGGGYYSELLSRVVGEKGEVTLQIPKAYLKYAEKSIKVRLANDRLKNVTYLLSEADDLKLSENTYDSAFLVLGFHDMFFKEDSWNFTADEVMPQVLTSLKSGGKLLVIDHDATENSGIRDVKSLHRIDSAFVKADLEKRGFKLVKTSKILENNADDHSKLVFVPELRRKTDRFVMLFEKI | failed
8 | MNRTKKRALTVRIVKTAISVALAAVIVVAMVLVNPQLSTNKLISSLMGYNHQSVDNGNASAGDADTNYYTADYTKENIRKAEDKLYDQIASEGTVLLKNDDNELPAQKGTTFSFFSANSVDGSSLTQGYLGTPETVTLKSAFTAAGFKVNETLWNYYESGAGKDYGLATGSVNYGDGEDFRINEAPLAALRKESGLLDSVRGTTPVYVLNRVVGEGRDMPRSMYNHADKQEDKEKSYIELDSTETEIIKYLNDNYKDVILLVKSSAAMELGWVADYPNIKAVVYSQNVTNALAKVFSGEVNPSGKTVDTFAADALASPAAQNFGSYQYYDGNGNATKYNYVDYAEGIYVGYKYYETRYEDKVLGQGNAGDYDYATEVVYPFGYGLSYTDFKWSDFSVATDGDDFVATVTVKNTGDVAGKDVVELYAQTPYTDYDKRNAVEKAAVNLVGYGKTAELEPGASETVKITFGKDQLKSYDYKGAKTYILDAGQYRFTAASDANQAINNILADKGKGMADGMTAEGDKAMVSSWTPENTDVDTTTFATDDATGKAIANLFDAASDPEVTYLTRSDWTGTFPKHYGESSGEINTWGNEINCKDSDGNNASCTWKKTASDELIKQLDGNDSGSTVDKSTITDTPTFGKSNGLKVSDMRGLDYDDEQWDKLLDELTEDDYNQLVYFSGYGVDYIKSVEKPFQTDADAATGWFYGGTGKAFPSIMMLTQTWNASLAEDLGVMMGNEALLGGANGWYAPAMNIHRTPFSGRNGEYYSEDGFMSGSMASLEVKGAATKGVYSYIKHFALNDQENHRGDRPGNFSVATWSNEQAIRETYLKPFDMCMHLGDMDMKTVVKKSDGTYENKTVTTPIAKGVMTSFNRLGATWTGGNYALIQQLLRDEWGFNGLIITDNANTSKFMSPYQMLEAGADIKLLNVSEDPTGEQLDFNDAATYHYARQAMHHLLYTVANSNCMNGALPGAGFTFYNQMKVMQIAFNAICGVILALLAFFSVWRWLPGTIKRVAARKETRAAKKAARKAAKA | failed
9 | ALSGSSGYKFGVLAKIVNYMKTRHQRGDTHPLTLDEILDETQHLDIGLKQKQWLMTEALVNNPKIEVIDGKYAFKPKYNVR | not failed
10 | IKVGKAKLLNQVLVNLPTSISQQTIAETDGDSAGSDSFPVGRTHHRWYLCHFGQSLIHVIQVVIGYFIMLAVMSYNTWIFLGVVLGSAVGYYLAYPLLSTA | not failed
11 | MSANDKLTILWTTDNKDTVFNMLAMYALNSKNRGWWKHINIILWGASVKLVANDTQVQTEILEMLQSGITIEACQDCCENFGVASIITNLGITVRYMGIPLTEYLKNGEKILSI | not failed
12 | MKKKQVLAVSSALMIGTTTALTGLPTPVMAQENTEVVQEAVVEENKTEQVPVEQKTENAEVQENITDKEQEETAENAETLKEESTKQETPATPEKEVVTEDKTVEASKNTEVKAGSIAIDETHFPDKVFREQIIAEFDKDGDSVLSVDEISKAQFLNLHGMKTISSLEGIQYLTNLQSLDVSTTSVSDLSPVKNSSLKRLDCRSSKVGSVDLTRYPNLEAFLCDNTSINSLDVSKNEKLNTLFADSTSISNLDVTNNPNLEQLSCSNTGLMELDVTHNPQLVTLDIGDTKVKTLDISKNPNLKQLSCYMTNIAELDVTKNTKLTRLFCHDTTIKKLDLSNNLELEMLRCGEIFEQGIRGLDISKNTKIKKLICDDLYWLNVGENKVLENNHAFVGNGYIDIKGNKIDLKKDVEQGIDISKVKVTANGTLDKDTGIITVDDVKKPVTYEYDCGTYKDGNVVLKVELSLNSQGEDNTAPTISANDVTLNVGDTFDPLANVTATDKEDGTITLTKDNIVANDVDTSKAGTYHVTYKVTDKNGASVKKTITVTVKQNTGDLNSAPIISANDVTLNVGDTFDPLANVTATDKEDGTIILTKDNIIANDVDTSKAGTYHVTFRVVDKNGAITEKTITVTVKEKATNKPVSPQQPQKPSKPTTPTKPSGQKNPVKTGDMTNVGLFTSMFAGSTGVLAVLFGKKRKRNKNN | failed
13 | MSIAIRIATIGALCAASAALSGCGSVGAASGALAGAATGLVTANPAVGVGVGIAVQAATDEAVNRTMKQLHQNQQDAIAKAAGSLAVGEVKPWKVKNTLPLENGEGEVRVTRAYSTALALCKEFAFSVKDGDKADWYFANACQQGTHWKWASAEPAVDRWGNLQ | failed
14 | MLDNHDLIVSSVEKNSPAWDAGLTTEDVIVAIDGLRLLDNELDNRLKDFKPKQTITVTYFRRDKLITSRLKLAAIPKNKLKIIPIAKASVLEHHHHHH | not failed
